*1 amine or outer side, *2 acyl side, *3 side chain or, on linkers, in order; H or OH if unused. Side-chain parts run from the residue outwards. The star is where a group is joined. C18 diacid = O=C(O)CCCCCCCCCCCCCCCCC(=O)*; γGlu = O=C(O)[C@H](CCC(=O)[*:2])N[*:1]; Isovaleryl = CC(C)CC(=O)*; AEEA = NCCOCCOCC(=O)O

Test [1] concerns the target T1, human neuropeptide Y2 receptor (human, UniProt P49146 1-381).
T1 sequence (looked up): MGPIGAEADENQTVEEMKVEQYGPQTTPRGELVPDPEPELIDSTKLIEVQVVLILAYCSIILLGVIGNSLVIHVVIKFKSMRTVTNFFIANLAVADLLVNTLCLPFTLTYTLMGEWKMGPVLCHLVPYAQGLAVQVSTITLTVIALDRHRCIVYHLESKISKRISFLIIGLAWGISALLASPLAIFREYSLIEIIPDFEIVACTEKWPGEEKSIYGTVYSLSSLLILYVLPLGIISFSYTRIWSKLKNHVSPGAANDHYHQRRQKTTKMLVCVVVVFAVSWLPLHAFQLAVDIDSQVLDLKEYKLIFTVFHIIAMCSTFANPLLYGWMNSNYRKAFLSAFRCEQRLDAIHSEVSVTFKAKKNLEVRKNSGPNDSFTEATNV
As to the kind of experiment: cell-based or functional assay.

The next test addresses T2, human NPY1 receptor (human, UniProt P25929 1-384).
T2 sequence (looked up): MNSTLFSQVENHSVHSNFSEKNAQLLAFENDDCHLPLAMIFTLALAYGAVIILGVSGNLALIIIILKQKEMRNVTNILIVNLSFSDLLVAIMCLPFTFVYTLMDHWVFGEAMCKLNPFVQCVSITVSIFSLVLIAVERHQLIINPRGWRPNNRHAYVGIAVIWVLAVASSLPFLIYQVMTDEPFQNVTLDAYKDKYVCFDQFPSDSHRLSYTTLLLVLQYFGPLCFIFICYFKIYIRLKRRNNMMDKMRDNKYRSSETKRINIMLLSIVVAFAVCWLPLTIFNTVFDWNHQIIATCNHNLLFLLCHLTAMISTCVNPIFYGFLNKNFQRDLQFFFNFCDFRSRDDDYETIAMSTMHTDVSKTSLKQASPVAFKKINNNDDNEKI
The experiment in a line: cell-based or functional assay.

Another test has as its target human NPY4 receptor (human, UniProt P50391 1-375). As to the kind of experiment: cell-based or functional assay.
The next test concerns the target T3, human NPY5 receptor (human, UniProt Q15761 1-445).
T3 sequence (looked up): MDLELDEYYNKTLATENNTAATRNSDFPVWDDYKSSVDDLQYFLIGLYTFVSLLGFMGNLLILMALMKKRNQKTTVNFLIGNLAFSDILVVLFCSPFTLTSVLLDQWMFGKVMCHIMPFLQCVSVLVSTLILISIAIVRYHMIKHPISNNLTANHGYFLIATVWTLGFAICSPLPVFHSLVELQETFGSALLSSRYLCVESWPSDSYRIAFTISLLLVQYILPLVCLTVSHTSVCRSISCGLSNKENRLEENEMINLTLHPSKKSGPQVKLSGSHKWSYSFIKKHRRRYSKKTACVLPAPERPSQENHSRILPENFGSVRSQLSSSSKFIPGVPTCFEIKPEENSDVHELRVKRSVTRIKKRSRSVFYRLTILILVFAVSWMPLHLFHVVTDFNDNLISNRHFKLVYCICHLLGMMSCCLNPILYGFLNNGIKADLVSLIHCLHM
As to the kind of experiment: cell-based or functional assay.

Test [2] concerns the target T1, human neuropeptide Y2 receptor. As to the kind of experiment: ratio of apparent Ki, pH 6.1-6.2 over pH 7.1-7.2. Here is the method:
(§1) The filtration RLB assay was carried out in 96-well plates in a final volume of 100 μl per well. Freeze-dried test peptides were dissolved in 100% dimethyl sulfoxide (DMSO) to stock solutions of 1 mM and serial dilutions were performed in assay buffer (50 mM HEPES, 5 mM MgCl₂, 1 mM CaCl₂, pH 7.4) containing 0.2% ovalbumin. […] Next, 80 μL membranes (HTS066M, ChemiSCREEN™ Human Neuropeptide Y2 Receptor Membrane Preparation, CHEMICON) were added to each well to give a final protein concentration of 0.5 μg/well. The plates were sealed and incubated at room temperature for 2 hours in a plate shaker set at 400 rpm. The incubation was stopped by vacuum filtration onto 0.5% poly-ethylene amine (PEI) presoaked GF/C filters using a 96-well FilterMate™ harvester (Perkin Elmer) followed by four washes with 300 μl/well ice-cold wash buffer (50 mM HEPES, 500 mM NaCl, pH7.4). Filter plates were then dried for 60 min at room temperature and the bottom of the plates was sealed with backing tape UniFilter-96. Finally, 50 μl/well scintillation counter cocktail (Microscint20, Packard) was added and the radioactivity was counted in the Packard TopCount NXT scintillation counter. IC₅₀ values (the half maximal inhibitory concentration of the agonist) were calculated by nonlinear regression analysis of sigmoidal dose-response curves.
(§2) Peptides (as TFA salts) were weighed out in a filter unit (Mini-UniPrep Syringeless Filter 0.45 μm, Whatman), and 0.1 M sodium diphosphate buffer at pH 6.4 or 7.4, respectively, or 0.2 M TRIS buffer at pH 8.3 was added to achieve 10 mg/ml final concentration. The peptide was (partially) dissolved by shaking the filter unit horizontally at approx. 400 rpm for 2 hours at room temperature. The sample was filtered to remove any insoluble particles.

For test [3] the target is unchanged. The experiment in a line: ratio of apparent Ki, pH 8.1-8.2 over pH 7.1-7.2. The procedure: as §1, §2
Test [4] shares this target. The experiment in a line: radioligand competition (125I-PYY(1-36)), hNPY2R membranes. The essentials:
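Commercial human Y2 receptor membranes (0.5 μg protein/well) were incubated with peptide for 2 h at room temperature in 50 mM HEPES, 5 mM MgCl₂, 1 mM CaCl₂, pH 7.4, with 0.2% ovalbumin. Bound radioligand was separated on PEI-soaked GF/C filters and counted by scintillation, and IC₅₀ came from nonlinear sigmoidal regression.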

For test [5] the target is unchanged. The experiment in a line: RLB 6: apparent Ki of filtrate after incubation at pH 6.1-6.2.
Test [6] has the same target. As to the kind of experiment: RLB 7: apparent Ki of filtrate after incubation at pH 7.1-7.2. The procedure: as §1, §2
The target is the same in test [7]. As to the kind of experiment: RLB 8: apparent Ki of filtrate after incubation at pH 8.1-8.2. Here is the method: as §1, §2
For test [8] the target is unchanged. As to the kind of experiment: radioligand competition (125I-PYY(1-36)), hY2R membranes; DMSO stock. The procedure: as §1
On the technique in general: Loss of bound radioactivity is the signal in a displacement assay; it reports binding, not function.

human NPY4 receptor, sequence (P50391 whole entry): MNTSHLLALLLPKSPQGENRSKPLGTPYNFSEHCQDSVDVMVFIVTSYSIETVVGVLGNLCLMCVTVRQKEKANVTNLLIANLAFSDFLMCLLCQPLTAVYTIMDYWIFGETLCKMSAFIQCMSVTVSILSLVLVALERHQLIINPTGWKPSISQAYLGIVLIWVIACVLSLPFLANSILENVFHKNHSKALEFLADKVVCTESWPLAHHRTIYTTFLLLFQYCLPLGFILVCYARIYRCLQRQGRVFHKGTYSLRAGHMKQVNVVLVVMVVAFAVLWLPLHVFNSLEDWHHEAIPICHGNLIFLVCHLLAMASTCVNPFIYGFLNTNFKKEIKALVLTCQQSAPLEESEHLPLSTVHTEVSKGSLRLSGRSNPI

B1: Compound 23 (peptide)
peptide: Isovaleryl-APAK([AEEA-AEEA-γGlu-C18 diacid])PEEDASPEEIQRYYVSLRHYYNWLTRQRY-NH2
Consider B1, for which the “EC50 (HTRF cAMP Gi assay)” value in [1] is 0.15 nM; with human NPY1 receptor it was above 5000 nM; with human NPY4 receptor, above 5000 nM; in the test with human NPY5 receptor it was above 5000 nM. Besides, in test [2], the “RLB ratio (RLB6/RLB7)” value turned out to be 1. Moreover, the “RLB ratio (RLB8/RLB7)” value in test [3] stood at 1. Also, the Ki in test [4] was 0.63 nM; in test [5], 6.3 nM; in [6] it was 6.3 nM; in test [7], 6.3 nM; in test [8], 4.9 nM.

B2: Compound 84 (peptide)
peptide: Isovaleryl-APEK([AEEA-AEEA-γGlu-C18 diacid])PEEDASPEEIQRYYVSLRHYYNWLTRQRY-NH2
With B2, the Ki in test [4] stood at 1.19 nM; in test [5] it was 6.6 nM; in test [8], 3.5 nM.

B3: Compound 203 (peptide)
peptide: Isovaleryl-APAK([AEEA-AEEA-γGlu-C18 diacid])PEEDASPEELQRYYVSLRHYYNWLTRQRY-NH2
Take B3: the Ki in test [4] turned out to be 0.75 nM; in test [5], 4.6 nM; in [6] it was 11.1 nM; in [8], 3 nM.

B4: Compound 53 (peptide)
peptide: Isovaleryl-APEK([AEEA-AEEA-γGlu-C18 diacid])PEADASPEEIQRYYVSLRHYYNWLTRQRY-NH2
For B4, the “EC50 (HTRF cAMP Gi assay)” value in test [1] is 0.119 nM; with human NPY1 receptor, above 5000 nM; with human NPY4 receptor, above 5000 nM; with human NPY5 receptor it was above 5000 nM. Also, the “RLB ratio (RLB6/RLB7)” value in [2] came to 1.1. In addition, in [3], the “RLB ratio (RLB8/RLB7)” value was 0.8. The Ki is 0.24 nM in test [4]; 3.4 nM in test [5]; 3.1 nM in test [6]; 2.5 nM in test [7]; 2 nM in test [8].

B5: Compound 106 (peptide)
peptide: Isovaleryl-APAK([AEEA-AEEA-γGlu-C18 diacid])PEEDATPEELQRYYVSLRHYYNWLTRQRY-NH2
Regarding B5, the “EC50 (HTRF cAMP Gi assay)” value in [1] was 0.173 nM; with human NPY1 receptor it was above 5000 nM; with human NPY4 receptor it was above 5000 nM; with human NPY5 receptor, above 5000 nM. Further, in test [2], the “RLB ratio (RLB6/RLB7)” value is 0.8. Besides, in test [3], the “RLB ratio (RLB8/RLB7)” value stood at 0.8. The Ki in test [4] was found to be 0.66 nM; in test [5] it was 7.7 nM; in [6] it was 9.3 nM; in test [7] it was 7.5 nM; in [8] it was 6 nM.

B6: Compound 29 (peptide)
peptide: Isovaleryl-APEK([AEEA-AEEA-γGlu-C18 diacid])PEAPASPEELQRYYVELRHYYNWLTRQRY-NH2
SMILES: CC(C)CC(=O)N[C@@H](C)C(=O)N1CCC[C@H]1C(=O)N[C@@H](CCC(=O)O)C(=O)N[C@@H](CCCCNC(=O)COCCOCCNC(=O)COCCOCCNC(=O)CC[C@H](NC(=O)CCCCCCCCCCCCCCCCC(=O)O)C(=O)O)C(=O)N1CCC[C@H]1C(=O)N[C@@H](CCC(=O)O)C(=O)N[C@@H](C)C(=O)N1CCC[C@H]1C(=O)N[C@@H](C)C(=O)N[C@@H](CO)C(=O)N1CCC[C@H]1C(=O)N[C@@H](CCC(=O)O)C(=O)N[C@@H](CCC(=O)O)C(=O)N[C@@H](CC(C)C)C(=O)N[C@@H](CCC(N)=O)C(=O)N[C@@H](CCCNC(=N)N)C(=O)N[C@@H](Cc1ccc(O)cc1)C(=O)N[C@@H](Cc1ccc(O)cc1)C(=O)N[C@H](C(=O)N[C@@H](CCC(=O)O)C(=O)N[C@@H](CC(C)C)C(=O)N[C@@H](CCCNC(=N)N)C(=O)N[C@@H](Cc1c[nH]cn1)C(=O)N[C@@H](Cc1ccc(O)cc1)C(=O)N[C@@H](Cc1ccc(O)cc1)C(=O)N[C@@H](CC(N)=O)C(=O)N[C@@H](Cc1c[nH]c2ccccc12)C(=O)N[C@@H](CC(C)C)C(=O)N[C@H](C(=O)N[C@@H](CCCNC(=N)N)C(=O)N[C@@H](CCC(N)=O)C(=O)N[C@@H](CCCNC(=N)N)C(=O)N[C@@H](Cc1ccc(O)cc1)C(N)=O)[C@@H](C)O)C(C)C
Consider B6, for which the “RLB ratio (RLB6/RLB7)” value in test [2] came to 0.9. Also, the “RLB ratio (RLB8/RLB7)” value in test [3] came out at 0.5. For the same molecule, the Ki in [4] was 0.29 nM; in test [5] it was 3.8 nM; in test [6] it was 4.4 nM; in test [7] it was 2.3 nM; in [8], 4.6 nM.

Source of the values: US20210139548A1 (published 2021).
